Residue numbers refer to the chain shown, from its start.
T1: TAMRA-labeled effector peptide cs094B (5(6)-TAMRA label coupled on resin after synthesis)
T1 construct: also called TAMRA-cs094B
T1 peptide: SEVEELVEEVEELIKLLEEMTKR

T2: TAMRA-labeled effector peptide cs201B (5(6)-TAMRA label coupled on resin after synthesis)
T2 construct: also called TAMRA-cs201B
T2 peptide: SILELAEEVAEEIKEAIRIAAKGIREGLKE

T3: TAMRA-labeled effector peptide cs207B (5(6)-TAMRA label coupled on resin after synthesis)
T3 construct: also called TAMRA-cs207B
T3 peptide: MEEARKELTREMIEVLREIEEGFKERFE

T4: TAMRA-labeled effector peptide cs217B (5(6)-TAMRA label coupled on resin after synthesis)
T4 construct: also called TAMRA-cs217B
T4 peptide: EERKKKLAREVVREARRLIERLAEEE

T5: TAMRA-labeled effector peptide cs221B (5(6)-TAMRA label coupled on resin after synthesis)
T5 construct: also called TAMRA-cs221B
T5 peptide: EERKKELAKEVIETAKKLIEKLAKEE

T6: TAMRA-labeled effector peptide js007B (5(6)-TAMRA label coupled on resin after synthesis)
T6 construct: also called TAMRA-js007B
T6 peptide: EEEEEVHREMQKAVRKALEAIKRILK

T7: TAMRA-labeled effector peptide cs074B (5(6)-TAMRA label coupled on resin after synthesis)
T7 construct: Chemically synthesized; also called TAMRA-cs074B
T7 peptide: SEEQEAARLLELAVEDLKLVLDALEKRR

B1: hinge cs094 (designed binder)
chain: MSGDEEERLRQEVEKAEKELEKLAKQSTDEEVRKMVREVAKQLRRLAEEAIRQKDDEALRQATEVVKMVQEAVKVAQKTTDQKVILLLLAVALVAIKVAQLAIRSDDTEALRLARIVIRAVQLLVKLVQKTTDPEVRRTALRVAELLAKLAKEAIERNDEEALREASEVVKEVQELVKEAEKSTDEEEIRELLQRAEERIREAQERIREGSGSHHWGSTHHHHHH
B2: hinge cs201 (designed binder)
chain: MSGDEEVQEAVERAEELREEAEELIKKARKTGDPELLRKALEALKEAVRAVREAIKRNPDNEEAIKTALRLARELRKVAKELIERARKTGDAELLKKALEAARVAVEAVRLAAEYNKENAEKMAELLVELAELAREVADVLIELAEKTGDPELLKKALEVLEEAVEAVRLAIEYDPDHEEAVETAKRLAEELRKVAELLEERAKETGDPELQELAKRAKEVADRARELAKKSNGSGSHHWGSTHHHHHH
notes: also called unlabeled hinge cs201
B3: hinge cs207 (designed binder)
chain: MSGTEDERRELEKVARKAIEAAREGNTDEVREQLQRALEIARESGSEEAFKLALEVVRRVAEVAARAGNVEAVKEALRVALEIVKEAMELIKDPEAIVRLALEAVRVVAEVAARAGAVEAVKVALRVALEIAKIAGTEEAVRLALEVVKRVSDIAKKAGNEDAVKEAEEVRKKIEEESGGSGSHHWGSTHHHHHH
notes: also called cs207A
B4: hinge cs217 (designed binder)
chain: MSGEMKEEIRRLAEELEKKTKDEEVKELARKAAELAEKSDNEEVLEVVKEALRAALKSKDEEVRRLLLEAAVLAAAAESSGSPEEKLEVALRAIRLAEKSKDEEVRRLALEAAVLAAESDDEEVLEEVLRALRRAEESKDEEERREELREAVRRAREGSGSHHWGSTHHHHHH
B5: hinge cs221 (designed binder)
chain: MSGEMKEEIRRLAEELRERTKDEEVRELAREAARLAEESDDEEVKEVVKKALEAALKSKDEEVIRLLLLAAVLAAAAARSGSPEEKLEIAKKALELAMKSKDEEVIRLALLAAVLAARSDDEEVLKKVKEALEKAMESKDVEEIRERLREAVEVARAGSGSHHWGSTHHHHHH
notes: also called original cs221; parent hinge without cysteines
B6: cs221_A73E (designed binder)
chain: B5 chain with A76E
notes: Point mutant of hinge cs221
B7: cs221_A114T (designed binder)
chain: B5 chain with A117T
notes: Point mutant of hinge cs221
B8: cs221_L66T (designed binder)
chain: B5 chain with L69T
notes: Point mutant of hinge cs221
B9: cs221_V111L (designed binder)
chain: B5 chain with V114L
notes: Point mutant of hinge cs221
B10: cs221_V111L_A114T (designed binder)
chain: B5 chain with V114L, A117T
notes: Double mutant of hinge cs221; also called cs221-mut
B11: variant cs221_lockedY (designed binder)
chain: B5 chain with L69C, L110C
modifications: disulfide bond between the two introduced cysteines (locks the hinge in state Y; oxidized with copper phenanthroline)
notes: also called cs221 locked Y hinge variant
B12: FRET(extension) cs221F, unlabeled (designed binder)
chain: MSGEMVEEIEKLAEELAKKTKDCEVKKLAKKAAELAKKSTDEMKKEIVKDALELALRTKDEEVIRLALKAAVLAAESDDEEVKEVVKKALEAALKSKDEEVIRLLLLAAVLAAAAARSGSPEEKLEIAKKALELAMKSKDEEVIRLALLAAVLAARSDDEEVLKIVKKALELAMESKDVEVIRLALEAAVLAARSTDPEKKKCVYEALEKAMESKDEEEIKKELKAAVEKARSTEGSGSHHWGSTHHHHHH
notes: also called unlabeled extended hinge cs221F
B13: hinge js007 (designed binder)
chain: MSGSEEVNERVKQLAEKAKEATDKEEVIEIVKELAELAKQSTDPNLVAEVVRALTEVAKTSTDTELIQEIVKVLLELARRLTDPQLLLEVLKSIAELLKELAEKTGNETAKLAALVAQIAAEVVEMALRAEKTHPGSEIVKLAVELVQKVAEIVLIAAQLMLDKPNSDEVRKVLKEVEKVAREALKALREAKRHPDSQKARDEIKEASQKAEEVKERIERAQEGSGSHHWGSTHHHHHH
B14: swapped target hinge csw20 (designed binder)
chain: MSGMEEVKELVEKAEELAKEAEELIKKAKKTGNPELLKEALRKLKEAVELAKEAVELDPEHEEAIELLARLAEKLLEVAKLLIELAKKTGNPELLKEALRALKEAREALRLAAEHAPEDAKLLARLAARLAELALLIAKILIELAKKTGNPELLLKALKVLTLAVEAVEAALEADPRLKEAVRVAKELAEVLKELAKLAKELAKKTGNEELKEAAKEAEEVAKRAEELAREAEGSGSHHWGSTHHHHHH

Tests used:
[1] = biological target: T1, TAMRA-labeled effector peptide cs094B; assay: fluorescence polarization kinetics; slope of kapp against hinge concentration
Procedure: (§1) All FP measurements were performed at 25° C. in 96-well plates (Corning 3686) using a Synergy Neo2™ plate reader and a 530/590 nm filter cube. The buffer for all FP measurements was 20 mM Tris-HCl, 100 mM NaCl, 0.05% v/v TWEEN20 at pH 8. Titrations were carried out in 96-well format, with 4 replicates per plate and 24 data points per titration (23 steps of two-fold serial dilution of hinges in the presence of TAMRA-labeled peptide at a constant concentration between 0.1 nM and 1 nM) with a final sample volume of 80 μl per well. Titration plates were incubated overnight at room temperature before measuring to ensure complete equilibration. The polarization signal S (as calculated by the Neo2™ software) was fitted to the equation
(§2) For FP kinetics experiments a 2× peptide solution and 8 different 2× hinge solutions at different concentrations were prepared separately. 40 μl of each hinge solution were mixed with 40 μl peptide solution using a multichannel pipet and the measurement was started immediately after mixing. Polarization signals S at each concentration were fitted individually to the equation

[2] = biological target: T1, TAMRA-labeled effector peptide cs094B; assay: fluorescence polarization titration; TAMRA-peptide constant, hinge varied
Source text: (§3) We used our hinge design approach to generate hinge-peptide pairs that span a wide structural space (FIGS. 1D, 2A, 6, 7). We experimentally tested multiple rounds of designs, using both DHRs (21) and helical junctions (22) as input scaffolds, and improving individual steps of the design pipeline between iterations. Designs for which hinge and GFP-fused peptide were soluble and interacted as judged by size exclusion chromatography (SEC, FIGS. 7-8) were selected for further characterization by fluorescence polarization (FP). […] To circumvent the bottleneck of finding soluble peptide sequences, we also sought to design hinges that bind to a given target peptide. Starting from design cs201, we used a modified version of our design pipeline to redesign the hinge to bind peptides cs074B or cs221B, respectively, which have similar hydrophobic fingerprints as the original target peptide cs201B.
as §1

[3] = biological target: T2, TAMRA-labeled effector peptide cs201B; assay: fluorescence polarization kinetics; slope of kapp against hinge concentration
Procedure: as §1, §2

[4] = biological target: T2, TAMRA-labeled effector peptide cs201B; assay: fluorescence polarization titration; TAMRA-peptide constant, hinge varied
Source text: as §3, §1

[5] = biological target: T3, TAMRA-labeled effector peptide cs207B; assay: as above
Source text: as §3, §1

[6] = biological target: T4, TAMRA-labeled effector peptide cs217B; assay: fluorescence polarization titration; signal never reached a plateau, only a lower bound can be estimated
Procedure: as §1

[7] = biological target: T5, TAMRA-labeled effector peptide cs221B; assay: fluorescence polarization kinetics; slope of kapp against hinge concentration
Procedure: as §1, §2

[8] = biological target: T5, TAMRA-labeled effector peptide cs221B; assay: fluorescence polarization titration; TAMRA-peptide constant, hinge varied
Source text: as §3, §1

[9] = biological target: T5, TAMRA-labeled effector peptide cs221B; assay: fluorescence polarization kinetics
Source text: To test the effect of the conformational pre-equilibrium on effector binding, we introduced disulfide “staples” that lock the hinge in one conformation. Using FP we analyzed peptide binding to stapled versions of hinge cs221 (FIG. 5A,B). […] Using the pre-equilibrium model described above, the observed association rates provide an estimate of the fraction of hinge that is in state Y in absence of the peptide: a 200-fold higher observed on rate for the locked Y variant indicates a 200-fold higher fraction of hinge in state Y compared to the original hinge. Assuming that the locked Y variant is 100% in state Y and assuming that the microscopic rate constant k₂ is identical for the locked Y hinge and state Y of the original hinge, this would indicate that the original hinge is 99.5% in state X and 0.5% in state Y at equilibrium.
as §2

[10] = biological target: T5, TAMRA-labeled effector peptide cs221B; assay: fluorescence polarization titration; 1 nM TAMRA-peptide, unlabeled hinge varied
Procedure: as §1

[11] = biological target: T6, TAMRA-labeled effector peptide js007B; assay: fluorescence polarization kinetics; slope of kapp against hinge concentration
Procedure: as §1, §2

[12] = biological target: T6, TAMRA-labeled effector peptide js007B; assay: fluorescence polarization titration; TAMRA-peptide constant, hinge varied
Source text: as §3, §1

[13] = biological target: T7, TAMRA-labeled effector peptide cs074B; assay: FP titration, 1 nM peptide, hinge varied
Procedure: (§4) FIG. 10. Redesign of hinges to bind other target peptides. An experimentally tested hinge (top, cs201) is redesigned using a one-sided two-state design approach to bind to different target peptides. Hinges csw13 and csw20 are designed to bind to peptides cs221B and cs074B, respectively, while having a backbone conformation that is similar to the parent cs201 that binds cs201B. Left: design models, right: FP titrations using 1 nM peptide (cs201B, cs221B, cs074B, js007B) and varying concentrations of hinge (from top to bottom: cs201, csw13, csw20). csw13 is an example of a successful orthogonal redesign that specifically binds the new target peptide cs221B while not binding the parent target peptide cs201B or the off-target peptides cs074B or js007B. csw20 is a less orthogonal example that binds the new target peptide cs074B most strongly but still binds to the parent-target peptide cs201B and to the off-target peptide cs221B albeit weaker than the new target.
as §1

[14] = biological target: T5, TAMRA-labeled effector peptide cs221B; assay: FP titration, 1 nM peptide, hinge varied
Procedure: as §4, §1

[15] = biological target: T2, TAMRA-labeled effector peptide cs201B; assay: FP titration, 1 nM peptide, hinge varied
Procedure: as §4, §1

Row | kon [7] | Kd [8] | also measured | Binder
1 |  |  | kon [1]: 9400 M⁻¹ s⁻¹; Kd [2]: 830 nM | B1
2 |  |  | kon [3]: 6700 M⁻¹ s⁻¹; Kd [4]: 22 nM | B2
3 |  |  | Kd [5]: 820 nM | B3
4 |  |  | Kd [6]: 20000 nM | B4
5 | 3400 M⁻¹ s⁻¹ | 2 nM |  | B5
6 | 1900 M⁻¹ s⁻¹ | 4.9 nM |  | B6
7 | 27700 M⁻¹ s⁻¹ | 0.2 nM |  | B7
8 | 2700 M⁻¹ s⁻¹ | 38.3 nM |  | B8
9 | 24300 M⁻¹ s⁻¹ | 0.3 nM |  | B9
10 | 76200 M⁻¹ s⁻¹ | 0.1 nM | fold higher on rate than the original cs221 [9]: 22 fold | B10
11 | 790000 M⁻¹ s⁻¹ | 12 nM | fold higher association rate than the original hinge cs221 [9]: 200 fold | B11
12 |  |  | Kd [10]: 23 nM | B12
13 |  |  | kon [11]: 78000 M⁻¹ s⁻¹; Kd [12]: 5.7 nM | B13
14 |  |  | binding result [13]: binds; binding result [14]: binds; binding result [15]: binds | B14

— patent publication US20250236644A1 (University of Washington, published 2025)
